Experimental data reported in the supplement of paper PMC7877785.
± gives the uncertainty stated by the source.

Assay: self-splicing fitness, log relative to wild type (ln ratio); higher = more splicing; Tetrahymena group I intron in knt gene, E. coli kanamycin selection, DiMSum; sequences stand for … in CUCUCU…GGAGGGAAAAGUUAUCAGGCAUGCACCUGGUAGCUAGUCUUUAAACCAAUAGAUUGCAUCGGUUUAAAAGGCAAGACCGUCAAAUUGCGGGAAAGGGGUCAACAGCCGUUCAGUACCAAGUCUCAGGGGAAACUUUGAGAUGGCCUUGCAAAGGGUAUGGUAAUAAGCUGACGGACAUGGUCCUAACCACGCAGCCAAGUCCUAAGUCAACAGAUCUUCUGUUGAUAUGGAUGCAGUUCACAGACUAAAUGUCGGUCGGGGAAGAUGUAUUCUUCUCAUAAGAUAUAGUCGGACCUCUCCUUAAUGGGAGCUAGCGGAUGAAGUGAUGCAACACUGGAGCCGCUGGGAACUAAUUUGUAUGCGAAAGUAUAUUGAUUAGUUUUGGAGUACUCGUGGUCG
Method in brief: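 Library with all eight P1ex-region intron nucleotides randomised, intron inside the knt kanamycin-resistance gene on pET-22b(+), in E. coli BL21(DE3). Cells grew overnight at 37°C or 30°C on LB agar with or without 25 μg/mL kanamycin (plus 100 μg/mL carbenicillin, 50 μM IPTG, 0.2% rhamnose), in six replicate transformations. Pooled colonies were amplicon-sequenced on Illumina HiSeq 2500. DiMSum fitness is the error-weighted combination of wild-type-normalised replicate fold changes, kanamycin versus none.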

Sequence: GCAAAGCAAUAUUACGCGGA
- self-splicing fitness (ln) (30 °C): -3.48 ± 0.27
- self-splicing fitness (ln) (37 °C): -1.94 ± 0.17

Sequence: AAUUAGCAAUAUUACGAGGU
- self-splicing fitness (ln) (30 °C): -3.26 ± 0.2
- self-splicing fitness (ln) (37 °C): -3.02 ± 0.24

Sequence: AGCUAGCAAUAUUACGUGGA
- self-splicing fitness (ln) (30 °C): -3.53 ± 0.2
- self-splicing fitness (ln) (37 °C): -2.04 ± 0.14

Sequence: UUAUAGCAAUAUUACGGCCC
- self-splicing fitness (ln) (37 °C): -0.921 ± 0.39

Sequence: GCGUAGCAAUAUUACGGCUG
- self-splicing fitness (ln) (30 °C): -3.74 ± 0.42
- self-splicing fitness (ln) (37 °C): -1.39 ± 0.49

Sequence: GGGUAGCAAUAUUACGUGGA
- self-splicing fitness (ln) (30 °C): -3.45 ± 0.2
- self-splicing fitness (ln) (37 °C): -2.02 ± 0.097

Sequence: GGGAAGCAAUAUUACGCUGA
- self-splicing fitness (ln) (30 °C): -2.63 ± 0.33
- self-splicing fitness (ln) (37 °C): -1.54 ± 0.25

Sequence: UAGAAGCAAUAUUACGUGGC
- self-splicing fitness (ln) (30 °C): -3.12 ± 0.21
- self-splicing fitness (ln) (37 °C): -3.09 ± 0.25

Sequence: CACAAGCAAUAUUACGCGGG
- self-splicing fitness (ln) (30 °C): -3 ± 0.14
- self-splicing fitness (ln) (37 °C): -0.984 ± 0.12

Sequence: CGCAAGCAAUAUUACGACGA
- self-splicing fitness (ln) (30 °C): -1.48 ± 0.11
- self-splicing fitness (ln) (37 °C): -0.997 ± 0.11

Sequence: GCGGAGCAAUAUUACGGGGC
- self-splicing fitness (ln) (30 °C): -2.48 ± 0.48
- self-splicing fitness (ln) (37 °C): -1.65 ± 0.35

Sequence: CGACAGCAAUAUUACGCAUC
- self-splicing fitness (ln) (30 °C): -3.1 ± 0.14
- self-splicing fitness (ln) (37 °C): -2.75 ± 0.25

Sequence: AAAAAGCAAUAUUACGCCCA
- self-splicing fitness (ln) (30 °C): -0.382 ± 0.12
- self-splicing fitness (ln) (37 °C): -0.253 ± 0.16

Sequence: GUCUAGCAAUAUUACGUCGA
- self-splicing fitness (ln) (30 °C): -2.12 ± 0.14
- self-splicing fitness (ln) (37 °C): -0.957 ± 0.13

Sequence: AUUUAGCAAUAUUACGAAUC
- self-splicing fitness (ln) (30 °C): -4.21 ± 0.31
- self-splicing fitness (ln) (37 °C): -3.21 ± 0.35

Sequence: GGCAAGCAAUAUUACGUGGU
- self-splicing fitness (ln) (30 °C): -2.43 ± 0.085
- self-splicing fitness (ln) (37 °C): -1.57 ± 0.075

Sequence: GGGAAGCAAUAUUACGCAUC
- self-splicing fitness (ln) (30 °C): -2.36 ± 0.39
- self-splicing fitness (ln) (37 °C): -1.77 ± 0.32

Sequence: GUUAAGCAAUAUUACGCCCA
- self-splicing fitness (ln) (30 °C): 0.115 ± 0.22
- self-splicing fitness (ln) (37 °C): -0.355 ± 0.29

Sequence: CAGCAGCAAUAUUACGUCUA
- self-splicing fitness (ln) (30 °C): -0.137 ± 0.045
- self-splicing fitness (ln) (37 °C): 0.377 ± 0.06

Sequence: GCGCAGCAAUAUUACGAGGU
- self-splicing fitness (ln) (30 °C): -2.49 ± 0.2
- self-splicing fitness (ln) (37 °C): -1.24 ± 0.25

Sequence: UGCAAGCAAUAUUACGGAUC
- self-splicing fitness (ln) (30 °C): -3.09 ± 0.17
- self-splicing fitness (ln) (37 °C): -2.38 ± 0.16

Sequence: UCAUAGCAAUAUUACGUCUC
- self-splicing fitness (ln) (30 °C): -1.43 ± 0.32

Sequence: GUACAGCAAUAUUACGCAUG
- self-splicing fitness (ln) (30 °C): -2.26 ± 0.075
- self-splicing fitness (ln) (37 °C): -1.03 ± 0.08

Sequence: GUACAGCAAUAUUACGAAAC
- self-splicing fitness (ln) (30 °C): -1.74 ± 0.1
- self-splicing fitness (ln) (37 °C): -0.531 ± 0.12

Sequence: UAUUAGCAAUAUUACGCUUG
- self-splicing fitness (ln) (30 °C): -0.91 ± 0.11
- self-splicing fitness (ln) (37 °C): -0.336 ± 0.16

Sequence: CUAGAGCAAUAUUACGAAGG
- self-splicing fitness (ln) (30 °C): -1.22 ± 0.12
- self-splicing fitness (ln) (37 °C): -0.403 ± 0.15

Sequence: UGACAGCAAUAUUACGCCUC
- self-splicing fitness (ln) (30 °C): -3.41 ± 0.26
- self-splicing fitness (ln) (37 °C): -3.24 ± 0.47

Sequence: UGGGAGCAAUAUUACGUGCU
- self-splicing fitness (ln) (30 °C): -2.65 ± 0.32
- self-splicing fitness (ln) (37 °C): -1.05 ± 0.25

Sequence: ACCCAGCAAUAUUACGCGUA
- self-splicing fitness (ln) (30 °C): -0.599 ± 0.07
- self-splicing fitness (ln) (37 °C): -1.08 ± 0.062

Sequence: AAAGAGCAAUAUUACGAGAG
- self-splicing fitness (ln) (30 °C): -3.36 ± 0.19
- self-splicing fitness (ln) (37 °C): -3.42 ± 0.21

Sequence: CAAGAGCAAUAUUACGUGCA
- self-splicing fitness (ln) (30 °C): -2.97 ± 0.21
- self-splicing fitness (ln) (37 °C): -3.06 ± 0.43

Sequence: CACGAGCAAUAUUACGAAUU
- self-splicing fitness (ln) (30 °C): -4.81 ± 0.41
- self-splicing fitness (ln) (37 °C): -2.25 ± 0.21

Sequence: CGGAAGCAAUAUUACGGUAG
- self-splicing fitness (ln) (30 °C): -0.312 ± 0.072
- self-splicing fitness (ln) (37 °C): -0.214 ± 0.096

Sequence: CGGUAGCAAUAUUACGAGUG
- self-splicing fitness (ln) (30 °C): -0.671 ± 0.098
- self-splicing fitness (ln) (37 °C): 0.142 ± 0.17

Sequence: ACCAAGCAAUAUUACGUUGU
- self-splicing fitness (ln) (30 °C): -2.74 ± 0.094
- self-splicing fitness (ln) (37 °C): -0.985 ± 0.085

Sequence: AUGAAGCAAUAUUACGGACU
- self-splicing fitness (ln) (30 °C): 0.892 ± 0.12
- self-splicing fitness (ln) (37 °C): 0.27 ± 0.1

Sequence: CUAGAGCAAUAUUACGGCCG
- self-splicing fitness (ln) (30 °C): -0.252 ± 0.15
- self-splicing fitness (ln) (37 °C): 0.456 ± 0.27

Sequence: CUUGAGCAAUAUUACGCGAA
- self-splicing fitness (ln) (30 °C): -3.53 ± 0.4
